PMC6270119, “Application of Reductive ^13C-Methylation of Lysines to Enhance the Sensitivity of Conventional NMR Methods” (Molecules, 2013)

How the values were obtained:
[1] = Dynamic light scattering particle size analysis; type: physicochemical; details: DLS, 0.25 mM (250 μM) FM-HVR in PBS, room temperature
Excerpt: This roughly corresponds to the monomeric form of peptide. However, upon introduction of farnesylation and methylation the hydrodynamic radius of the peptide increased to 8.15 ± 0.46 nm at a four times lower concentration as shown in Figure 2B. This hydrodynamic radius corresponded to a particle of 471.92 ± 63.75 kDa in size. Observation of higher order assemblies of FM-HVR allowed us to conclude that post-translational modifications in K-Ras can lead to aggregation through hydrophobic interactions.
For studying aggregation of peptides, dynamic light scattering experiments were performed on a DynaPro-801 molecular sizing instrument (Wyatt Technology Europe, Dernbach, Germany). The peptide samples were dialyzed against PBS. The sample volume of 250 μL was used for the experiments. […] Samples were centrifuged at 12000 rpm for 10 min before experiments. Analysis of the data was carried out using Dynamics software.

[2] = target: reductively methylated calmodulin (UniProt P0DP23); test: NMR titration; 1H-13C HSQC of 70 µM reductively methylated CaM with FM-HVR at 0:1, 1:1, 2:1 and 3:1 molar ratios (aggregated FM-HVR); 25 °C; 50 mM Tris-citrate pH 6.5, 50 mM NaCl, 5 mM MgCl2, 10 mM β-mercaptoethanol, 10 mM CaCl2
[3] = target: fully post-translationally modified (farnesylated and methylated) hypervariable region peptide of K-Ras4B (human); test: pyrene fluorescence (critical aggregation concentration); peptide at different concentrations with 2 µM pyrene in PBS; excitation scans 315-360 nm, emission 393 nm; ratio I334/I337 against the logarithm of the peptide concentration
[4] = target: reductively methylated calmodulin (UniProt P0DP23); test: NMR titration; 1H-13C HSQC of 1 µM reductively methylated CaM with 0, 0.5, 1 and 1.5 µM FM-HVR (peptide not aggregated); 25 °C; 50 mM Tris-citrate pH 6.5, 50 mM NaCl, 5 mM MgCl2, 10 mM β-mercaptoethanol, 10 mM CaCl2

| FM-HVR to CaM titration ratio at saturation (FM-HVR per CaM) [2] | critical aggregation concentration [3] | FM-HVR to CaM titration ratio at saturation (FM-HVR per CaM) [4] | Molecule | hydrodynamic radius [1] | particle mass corresponding to hydrodynamic radius [1] |
| --- | --- | --- | --- | --- | --- |
| – | – | – | COC(=O)[C@H](CSC/C=C(\C)CC/C=C(\C)CCC=C(C)C)NC(=O)C1CCC(CN2C(=O)CC(SC[C@H](NC(=O)[C@H](CCCCN)NC(=O)[C@H](CO)NC(=O)[C@H](CCCCN)NC(=O)[C@H](CCCCN)NC(=O)[C@H](CCCCN)NC(=O)[C@H](CCCCN)NC(=O)[C@H](CCCCN)NC(=O)[C@H](CCCCN)NC(=O)CNC(=O)[C@H](CC(=O)O)NC(=O)[C@H](CCCCN)NC(=O)[C@H](CO)NC(=O)[C@H](CCSC)NC(=O)[C@H](CCCCN)NC(=O)[C@H](CCC(=O)O)NC(=O)[C@@H](N)CCCCN)C(=O)O)C2=O)CC1 (some centres unmarked) [FM-HVR] | 8.15 ± 0.46 nm | 471.92 ± 63.75 kDa |
| 2 | > 10 µM | 1 | fully post-translationally modified (farnesylated and methylated) hypervariable region peptide of K-Ras4B | – | – |
